One protein from PMC2671166, “Site Directed Mutagenesis of Amino Acid Residues at the Active Site of Mouse Aldehyde Oxidase AOX1” (PLoS ONE, 2009) can be followed below.

The data set concerns the molecule itself. The data set is described as follows: SEC; purified mAOX1; single peak with an approximate molecular mass of 300 kDa; data not shown. (In general: In gel filtration, larger molecules generally elute earlier.)

The stoichiometry N is a count of units in the complex or per binding partner.

B1: Mouse aldehyde oxidase AOX1 (recombinant, wild-type) (enzyme, UniProt O54754 1-1333, looked up)
chain: MDPIQLLFYVNGQKVVEKNVDPEMMLLPYLRKNLRLTGTKYGCGGGGCGACTVMISRYNPSTKAIRHHPVNACLTPICSLHGTAVTTVEGLGNTRTRLHPIQERIAKCHGTQCGFCTPGMVMSMYALLRNHPEPTLDQLTDALGGNLCRCTGYRPIIDACKTFCKASACCQSKENGVCCLDQEINGLAESQEEDKTSPELFSEEEFLPLDPTQELIFPPELMRIAEKQPPKTRVFYGERVTWISPVTLKELVEAKFKYPQAPIVMGYTSVGPEVKFKGVFHPIIISPDRIEELGVISQARDGLTLGAGLSLDQVKDILADIVQKLPEEKTQTYRALLKHLRTLAGSQIRNMASLGGHIVSRHLDSDLNPLLAVGNCTLNLLSKDGERRIPLSEEFLRKCPEADLKPQEVLVSVNIPWSRKWEFVSAFRQAQRQQNALAIVNSGMRVLFREGGGVIEELSILYGGVGSTIISAKNSCQRLIGRPWNEGMLDTRCRLVLDEVTLAASAPGGKVEFKRTLIISFLFKFYLEVSQGLKREDPGHSPSLAGNHESALDDLHSKHPWRTLTHQNVDPAQLPQDPIGRPIMHLSGIKHATGEAIYCDDMPAVDRELFLTFVTSSRAHAKIVSIDLSEALSLPGVVDIITADHLQEANTFGTETFLATDEVHCVGHLVCAVIADSETRAKQAAKQVKVVYQDLAPLILTIEEAIQHKSFFKSERKLECGNVDEAFKIVDQILEGEIHIGGQEHFYMETQSMLVVPKGEDGEIDIYVSTQFPKYIQDIVAATLKLSANKVMCHVRRVGGAFGGKVGKTSILAAITAFAASKHGRAVRCILERGEDMLITGGRHPYLGKYKAGFMNEGRILALDVEHYCNGGCSLDESLWVIEMGLLKLDNAYKFPNLRCRGWACRTNLPSNTALRGFGFPQAGLVTEACITEVAIKCGLSPEQVRTINMYKHVDTTHYKQEFSAKALSECWRECMAKCSYFERKAAIGKFNAENSWKKRGMAVIPLKFPVGIGSVAMGQAAALVHIYLDGSALVSHGGIEMGQGVHTKMIQVVSRELRMPMSSVHLRGTSTETVPNTNASGGSVVADLNGLAVKDACQTLLKRLEPIISKNPQGTWKDWAQTAFDQSISLSAVGYFRGYESNIDWEKGEGHPFEYFVFGAACSEVEINCLTGDHKNIRTNIVMDVGHSINPALDIGQVEGAFIQGMGLYTIEELSYSPQGTLYSRGPNQYKIPAICDIPTEMHISFLPPSEHSNTLYSSKGLGESGVFLGCSVFFAIHDAVKAARQERGISGPWKLNSPLTPEKIRMACEDKFTKMIPRDEPGSYVPCNIPV
notes: mouse aldehyde oxidase AOX1, cDNA cloned from mouse CD1 liver into the NdeI-SalI sites of pTrcHis (plasmid pSL205); band of 150 kDa on SDS-PAGE; Holds Moco, two [2Fe-2S] clusters and FAD as cofactors; also called mAOX1; mAOX1-WT; source: E. coli TP1000, coexpressed with mMCSF, purified (Ni-NTA, Superose 12, benzamidine sepharose)
For B1, the “stoichiometry N” value came to 2.
